# Measured values from paper PMC3543441.
# Key:
# [1] = target: C-terminal truncated Entamoeba histolytica ornithine decarboxylase (EhODCΔ15) (Entamoeba histolytica); test: SEC; HiLoad 16/60 Superdex 200, purified protein at 5 mg/ml injected, 0.5 ml/min; elution compared with Gel Filtration HMW Calibration kit markers; eluted at 74 ml
# [2] = target: C-terminal truncated Entamoeba histolytica ornithine decarboxylase (EhODCΔ15) (Entamoeba histolytica); test: crystal structure; sitting drop, 20% PEG 3350, 0.2 M LiCl, pH 6.8, 20°C; P212121, four molecules per asymmetric unit; molecular replacement with human ODC (PDB 2ON3); apo-enzyme
substance,measurement,setting,value
C-terminal truncated Entamoeba histolytica ornithine decarboxylase (EhODCΔ15) (enzyme),stoichiometry N,[1],2
same,stoichiometry N,[2],4
